Reference: a protein production outcome set (Wang et al. 2014)

Assay: label from the status in PepcDB records

Sequence | protein production
MFFMLFVLRIPAAFTLMMVGFLGIATVTTWDAALAMLGSELWGSFSNYGLTVIPLFILVGEIVHYAGYNNSLYHATYKWFGHKRGGLAMTTILASAAFSAISGSNTATAATMSAVAIPAMKEYKYHPLLNAGSVAAGATLGVLIPPSIVLVVYGLYTGQSIGKLFFGNVIPSAILTILILLTVVWICRRHPDWGPEGPRSGWGERFAALPEAIDILILFAIIMYALFTGVVTATEAAAVSCFLALVICGLRRKLTWKKLTGALVDTLRISCMVFMIVAGAVIFAKFLTITRLPYETAEWISSLDLPRWMVLWVILACYIIGGCIMDALAFLLVSLPIFYPLVTQLGYDPIWFGQVITIVTTMGSIMPPIGICCYVVSGMSGIPLGTVFRSGLYYMPSYIASIAILMVSPYWTVLVLADLVK | failed
MFFMQNTKSIYIIIPVHNRREVTLQCLTTLKLNEDLDQYRIVVVDDDSTDGTREAVNAQFPQVIVLEGDGNLWWTGAVKMGMKYAYEQGGELFILLNDDCYPQMGTISKLLKKIDENPNSVIGVQCLDPKSKEPSYGGILTNNNKLQVVKIFHTFNSMTDCDALNGNLLAIPRNIVDKVGFPDAKRFPHHFGDFVYTNRIKKEGYKLFLCNDIVALCEYHYNGLSKKSSQFNRFQELFTPTSQFYWKTEMKGYIELFGIKGIIIYLHKRCLLSSLKVIFLLLDQKLTL | failed
MFFRSIRFSLTLWYAVTLAVILVLFSSFIYLVLSNQLNKGIDRELLTVAEAVASPTLEPFRHAAPSVFDQVLEDFIGTRLTGKHVQVLDGSGAVAASSKSMEELRIPLGKTALRRVQAGKVSYETRVNLDVYPVRTIVYPIMTDGRLDQIVLVGTSMRGPAETLEKVQLVFAVSIPLALILWSLGGWFLAGRALKPVDLITRSARKITAENLGLRLEVINPQDEIGRLATTFNDTLERLENAFNRIRQFTGDVSHELRTPLTILRGEAEVGLKWAKEPEEFRELLRSNLEEINRMSKIIETLLELSRVEGGVKLELADLDLSDLLAELVQQSRLIAPDKSLRIAFVGQEPVTILGDWLRLRQVFMNLLDNAVKYTPADGEISVVVDTTGDSARVAIIDSGPGIPPEDLPHIFERFYRVDKARNRADGGCGLGLSLVKTFVEAHGGRIEVVSEAGKGSIFTVLLPRVVAG | not failed
MFFVNRRLIKRVFLGFAVIALLLPLVLKQSFEITAEVIVQSKKLSQTDANTVLAPDSDKFIPPSLADMETESNILRSPTLIRDTIDQLRREGQFGGSEGLLTRLIVKPIRNGLIDPLRNHVINPVRGFFGLAVDPVRDTSLDAFTDQAVKDLKIGTLPGSNVISIVYASPNAAEGTRFVERLLANYLKNRQDLQSNELPEAFYEQKKAQYQSRLDDLEGKRQALLEAAHASDPKEEITFRLNAINTEEQSLNGYRDQALENQRRLDYLQKNLAAARKAGLTDYTFPFAFANTVDNVAYEDREIKQLGEQLTNLVSQYGTTADTYRADSVPMQQQREQIVRARAQFLKVVENRVRERSSDLQITQSVIAQKTARINDYKARVRDLQEVLSKLRQLDTEIDALHKAFFTYTQRYEESRGERLISGELSNARVLSQPYEPSEAAFPKPMLIIPLGLLTGLLLAIALGYVYEFFDHRFKHPAQVSDHLGLPVLMVLNAVEQPQVNPYPRWTWRWAWHWAKQ | failed
MFGAELVIVLLAIYLGARLGGIGIGFAGGLGVLVLTLIFQIKPGAIPFDVIEIIMAVIAAIAAMQVAGGMDYLVSLAERMLRRHPKYITFLAPLVTWFMTVLAGTGHTAFSTLPVITEVAKEQGIRPSRPLSIAVVASQIAITASPISAAVVFFAGILEPLGVSYLTLLAICIPVTLLAVMLTAIVCNFLGCELKDDPVYQERLAKGEVRLRGSQVFELQPHAKRSVLLFLIGIVAVMFYATAISDTVGLIKNPVLPRNEAIVVFMLTIATLISITCKIDTGEVLNASTFKSGMSACVCVLGVAWLGDTFVKAHISDIQAVAGDLLHNYPWLLAVVLFFAATLLYSQAATTKALMPAALLLGVSPLTAIASFAAVSALFVLPTYPTLLAAVEMDDTGSTRIGKYVFNHAFLIPGVIAITLCVILGFIFGGIML | failed
MFGCLVAGRLVQTDAQQVASDKFVFNLPDYEHVNHVVVFLLGTVPFPEGLGGAVYLCVPGGAAGQVWQLLGFITNEKPSAIFRISGLKAGEGSSHPFGMMDAPAAPSMAQVGVSVEGLHLLAQQTPVSSSAVSTLDSFTQFTQKMLDSLFNFTSSFALSQSRMSPNPSEMFIPASSIRRWYENFQRRLMQNPNFWKT | failed
MFGCPKDLLNGPCGGALDGKCEVNSNLCPWYSLMEKFELLDGAPLLVEHPVVLEMERIFEGEEVEIKRSSFIKNLGRGKAISVEFPIRLFEKGVREFRKVGDLYTIPDNPLGYPHISPTALGTWLKSKGHSVMPHLTAKDRNVIAISSEFRTALEFDFEGILITTGDWSGFILQGKPVFDLDSANMIRLAKLMFSGVLPTGERVEVKERPFIAGTVNPNYPAKLEGKRLARKIIAGADLVISQVVANRKVVREIPKILQEALKYSPHEVPVVVSILYPLKRELEPILRKMGIKTGDDIRAIVEEISSLEFGGINVIVFEETRWEEKLNEVLDLLKELL | failed
MFGLGGEAMIKTQVVKLKVNKTMQKHLDALCDYRRYCWNKGLETWQLMYEAHTLTTKDNPSPNERRVRDELVAGKADWQYDLSARCLQLAIKDLANAWKNFLDKAQPDWGKPRFKSKKAPRQGFKTDRAEIVNGKLRLDKPWSIAKDNWFDLASYEALKMRKVKIASIFKEKGLYYAALTYEENIPAKAKTHKKTAIDVNVGHFNYTDGLINVLPVRLQKLYKRIKHYQRMLARKREINGKLATKTNNYLAVRAKLQRDYRKVVNIQNDLLQKFTTRLVNDYDQIVIEDLAVKEMMMTHVASKGMQRSLFGKFRQILTYKCDWYNKELILASKMYPSTQRCAKCGYVKKGDEKITLQGNQKHGTKHNEYICYRCGYTNDRDENAVLNLLALAK | failed
MFIPQIVPIRDLKNTSAISNLCHKTNEPIFITKNGYGDMVIMSMETYEGNAFFNNLYGNLEEAEMDLQNGRVSGIDEAIEEIKSRYDL | failed
MFITLSERFGLLLAGGFAIMTLAPLDKLGPGRTRSWRATALLVVLFSLFTILGTYNGNIVFQSFANLRAMGAVTAGLFGGPMVGALTGLIAGGHRYFIDVGGFSAVPCGLATFLEGLAAGLFAWRFPSRSLDWGTAMTFAAVGEAVHMCLVLGLARPYAQAVDLVEVIGLPMILLNGVGAAIFVQALRMQMHFRDLRDSSQARQILSIANRTLPHLRAGLSAASARATAEIILDETRVAAVALTSNDMVMAHVGAASDHHRAGHSVCTQATRRVATDGIPLFVTGHDEIGCQLEACPLCSAIIVPLRKGDTILGCLKLYGTKDRPLDQTLFELAKGLADLFATQIELEDIGIKNQLLARAEIRRLQAQINPHFLFNSLNTVASFCRTAPGQARELILDLARYMRRNLDTSREAIHLAEEVEQIRAYLVIEKARFGERIRAVIDIDPETEHCLVPPLLIQPLVENSVRHGILGNEEGGVVRLATSMEDGHVVVVVEDDGAGMPESTRQGILNGTPVTAHGEGIGASNCNQRLVQLYGPAYALSIDSAPGMGTRITFRVPASTDAEVFASAAA | failed
MFKELHPNIRARILIQFLSKIIGSMIFPFMAIYFSMEINSKVAGILLMINVLAQFLAGMYGGHLADIIGRKKLMVAGELLKVFAFLGMVLCNSPVFHSPWITFVMLLLIGVAQGLINPAGEAMLIDVSTPENRSFMYSVSYWANNLSMMIGIIVGGWFFIDYLFPLLVALFIMSFVTAWLTISLISETLKQKAVLKKGSYGLVGMLKNYGQVLHDCRFLLYTLGGIAVMSIEFQRSNYISVRLAEDFQALLVHFGPLGNITLNGVQIVSVLTAVNTLFIVLFTVPVARFVTKRAQQPIMYVGFTLFAIGFAVCAFANNLAVLLLATAVLSIGELLYVPTRQTILAAIVDDNRRGAYMAFNGIIFQIGKMIGSVSLVFAPFIGKYGMATFTILLGVLSIVFSAAALKSGWKKVLAK | failed
MFKLVFKQYKCKSTSPDLTEVVKIDDCVVKGNDQEKSDNNIVQRLSISNVESLQTMPGVKSPKDWRTYTLTNHPGIIVIRNPFSERGRRYWSARCLRDFPRTPNIVNLNERLFDESVRSDWWKQLNLCSDGVEFQRIKSAMRWTTFGYHHNWDTKIYDEEMQSPFPEDLSSLCGLFAQALGYADFKPEAAIVNYYPVGSTLSGHTDHSEPNKSAPLFSFSFGQTAIFLIGGRSLEEKPTAIYLQSGDVMIMSGESRLCYHAVPRIIKTQASATLSLIIEDVDNADIKTRTIDKDLFHDVGNPQFWEPFSRYMDDSRININIRQVLNPGDVKL | failed
MFKSVAKLGKSPIFYLNSQRLIHIKTLTTPNENALKFLSTDGEMLQTRGSKSIVIKNTDENLINHSKLAQQIFLQCPGVESLMIGDDFLTINKDRMVHWNSIKPEIIDLLTKQLAYGEDVISKEFHAVQEEEGEGGYKINMPKFELTEEDEEVSELIEELIDTRIRPAILEDGGDIDYRGWDPKTGTVYLRLQGACTSCSSSEVTLKYGIESMLKHYVDEVKEVIQIMDPEQEIALKEFDKLEKKLESSKNTSHEK | failed
MFKTLEVKYMEDRVLDWAVYEKTAREMVAEGLVLLKNDNKALPLKQGETVSVFGRMQNHYYKSGTGSGGMVNVAKVVGILDALNECKDVNVNQKLAETYAAWDKEHPVELGLGWGQEPWSQAEMPVTEELVQEAAGESDSAIVIIARTAGEDKDNTLEKGAFMLTDIETDMLRLVRENFQKMVVLLNVGGLIDMSFLDTISPDACMYVWQGGMVGGYGVVDVLVGDVSPSGKLTDTIAYDIKDYPAYDNFGGEERNFYAEDIYVGYRYFETFAKDKVRYPFGYGLSYTDFKIGVKHASLDFEKGVANICVKVTNTGKRLGKEVVQVYGEMPQGRLGKPSRVLIDFAKTKELVPGLSDELKFEIPLDRMASFDDSGATGHRNCYVLEAGDYTIHVGNSIRNTTECLFFELAETVELQKLQEALAPYEKFDRMKPFCDENGRMLIEYEETPLVTVDMYDRREQELPEEIPVTGDKGITLLDVREGKATMDEFIAQFDDEDLACFVRGEGMGSSLVTAGTASAFAGVSPNLIAHKIPSVCCDDGPSGMRLDSGMKAFSLPNGTLCGCSFNKELNTRLYALLGLEMTANKVEVLLGPGMNIHRHPLNGRNFEYFSEDPYLTGSIATAQLEGLKSSGVSGTIKHFCGNNQEYHRHTMDSVISQRALREVYLKGFEIAVKSGYADSVMTTYGLVNGLYTAGSYDLNTTILRNEWGFTGVVMTDWWASINRRGMEPDANDFATMIQAQNDMYMCCPDGSKNMGGDNVLEALHDGRILRAELQRIAKNVCSFAMDTNAFKRLVGEPVEIEIINRPKQADDFSIDDVEYINVDRDILIDLTEKASTADTNYVIALDVEHPGEYDVSLRGSSTLEKLAQLPCTLFFNGFPVSNFTFNGTDGKDVVIRKEVKFYSRFNVLRLYVKSNGLDLKDIKFSFEKEF | failed
MFLKIPFKILRLATAYVRIRVKNIILKLKLVFGKNVFIGSNVVIDPGYHWLISIGNNSAITNGVTILSHDGSLSRHTGYTKIGKVSIGSNTFIGVKSIILPGVSIGNNVIIGAGSVVTKDIPDNSVAIGNPAVVVGSIKDYINKHKRMIRTSEVYECQSLLKDNIRDFKGEIGYVKTNFENHEDL | failed
MFLKKKLSAGKSVVGTMLNLVYNPDIVRIYAEAGLDYFIVDCEHAAYTFREINHLVSVAKNAGVSVLVRIPQVDRAHVQRLLDIGAEGFMIPGVQSAETMRETVRLAKYPPLGERGVGGSIVTDFKPVNWAEWVQERNDEIFIMAQIEHVKAVEDIDSILAVQGVDAVIFGPRDLSNDLGIIGQTEHPKVYECYEKVYRAADRQGVVKGFFTAADAAKMGWAVERGAQMLLWSGDVAALQTYTAKGVKTIKELPGFNP | not failed
MFLLSGDPCFKTPPSTAKSISIPGQDSSLQLTCKGGGTSSGGSSTNSLTGSRPPKARPTILSSGLPEEPDQNLSSPEEVFHSGHSRNSSYASQQSKISGYSTEHSRSSSLSDLTHRRNTSTSSSASGGLGMTVEGPEGSEREHRPPEKPPRPPRPLHLSDRSFRRKKDSVESHPTWVDDTRIDADAIVEKIVQSQDFTDGSNTEDSNLRLFVSRDGSATLSGIQLATRVSSGVYEPVVIESH | failed
